Here are results for 5 molecules from US20090054342A1 (COMPUGEN, published 2009).

The IC50 is the concentration at which inhibition is half-maximal. Higher therefore signals weaker potency. One may read the Ki as a measure of affinity in units of concentration, obtained from inhibition or displacement. The low end stands for a stronger hold on the target, the high end for a looser hold on the target.

Assay [1] concerns the target MrgX1 (Mas-related G-protein coupled receptor member X1) (UniProt Q96LB2). Nature of the assay: cell-based or functional assay.
Assay [2] addresses T1, FPRL1 (FPR-related receptor 1) (UniProt P25090 1-351, limits assumed).
T1 construct: whole, on cells; Expressed in CHO cells (with Gα16 in the calcium flux assay); also called lipoxin A4 receptor; LXA4R
T1 sequence (looked up): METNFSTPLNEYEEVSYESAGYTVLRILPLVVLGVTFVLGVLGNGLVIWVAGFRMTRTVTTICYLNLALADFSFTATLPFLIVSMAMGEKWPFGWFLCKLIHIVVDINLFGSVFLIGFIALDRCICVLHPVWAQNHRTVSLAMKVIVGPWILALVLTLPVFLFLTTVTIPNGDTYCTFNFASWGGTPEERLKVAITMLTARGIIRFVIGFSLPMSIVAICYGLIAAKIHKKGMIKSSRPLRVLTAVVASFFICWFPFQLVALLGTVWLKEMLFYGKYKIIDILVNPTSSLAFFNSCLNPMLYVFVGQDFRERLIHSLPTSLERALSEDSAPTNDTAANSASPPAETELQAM
In words: competitive radioligand binding against 0.025 nM [125I] WKYMVm on FPRL1-transfected CHO cells, 90 min at 25 C. The procedure: The specific binding of Peptide 58 (SEQ ID NO:1) to FPRL1 was analyzed by testing its ability to compete with 0.025 nM [¹²⁵I] WKYMVm (W peptide), a known agonist of FPRL1, for binding to FPRL1 in CHO transfected cells. CKβ8-1 (aa 46-137), another known ligand of FPRL1 was used as a positive control in this assay (Chiang et al 2006, Pharmacological Reviews 58, 463-487). Peptides were incubated with cells for 90 minutes at 25° C., in the presence of Incubation Buffer (50 mM HEPES, pH 7.4, 100 mM NaCl, 5 mM KCl, 5 mM MgCl2, 2 mM Ca C12, 0.5% BSA) and the amount of radioactive W peptide was measured.

The target in another assay is T2, Mas receptor (UniProt P04201 1-325, limits assumed).
T2 sequence (looked up): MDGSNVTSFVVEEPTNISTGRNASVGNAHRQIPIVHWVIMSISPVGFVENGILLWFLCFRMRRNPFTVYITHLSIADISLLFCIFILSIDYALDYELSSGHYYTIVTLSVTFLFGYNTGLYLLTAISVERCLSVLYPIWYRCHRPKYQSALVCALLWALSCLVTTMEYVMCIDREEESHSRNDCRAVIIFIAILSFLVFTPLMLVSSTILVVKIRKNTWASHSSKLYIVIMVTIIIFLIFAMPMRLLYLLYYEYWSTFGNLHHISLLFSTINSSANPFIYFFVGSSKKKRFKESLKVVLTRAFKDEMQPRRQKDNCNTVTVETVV
In words: cell-based or functional assay.

Assay [3] has as its target MrgX1 (Mas-related G-protein coupled receptor member X1) (UniProt Q96LB2 1-322, limits assumed). In words: cell-based or functional assay.

No end group written: not given here. Some results are limits rather than exact numbers.

Chain of MrgX1 (Mas-related G-protein coupled receptor member X1) (UniProt Q96LB2 1-322, limits assumed) (Q96LB2 whole entry): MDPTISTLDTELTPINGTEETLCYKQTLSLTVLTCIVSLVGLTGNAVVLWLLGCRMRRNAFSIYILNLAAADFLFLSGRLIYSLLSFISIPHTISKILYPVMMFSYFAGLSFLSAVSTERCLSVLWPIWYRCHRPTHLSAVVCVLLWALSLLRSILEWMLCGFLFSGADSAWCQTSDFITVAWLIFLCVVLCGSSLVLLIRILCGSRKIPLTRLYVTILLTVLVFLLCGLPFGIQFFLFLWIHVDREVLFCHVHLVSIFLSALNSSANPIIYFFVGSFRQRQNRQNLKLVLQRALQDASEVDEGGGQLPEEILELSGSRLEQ
Chain of MrgX1 (Mas-related G-protein coupled receptor member X1) (UniProt Q96LB2) (Q96LB2 whole entry): as above

Take “BAM22 (bovine adrenal medulla peptide 22) (from UniProt P01211 206-227)”: the EC50 (calcium flux dose response) in assay [1] is above 50 nM.

B1: Peptide 58 (peptide)
peptide: TIPMFVPESTSKLQKFTSWFM-NH2
notes: Synthetic peptide (SPPS); also called P58; peptide P58
Take B1: in assay [2], the IC50 came to 189 nM and affinity was put at a Ki of 54.1 nM.

For FLGYSIYLNRKRRGDPAFKRRLRD [Peptide 61_S], the “EC50 (calcium flux dose response)” value in the assay with Mas receptor is at least 500 nM.

In the case of SMVHRWSRAVLFPAAHRP (also: acetate salt) [Peptide 33_V], the “EC50 (calcium flux dose response)” value in the assay with Mas receptor was at least 1000 nM.

As to GIGSVWHWKHRVATRFTLPRFLQ [Peptide 60_S], the “EC50 (calcium flux dose response)” value in assay [3] was at least 300 nM.
